From patent US20180044391A1 (DEUTSCHES KREBSFORSCHUNGSZENTRUM, published 2018)

Biological target: T1, CD19 (UniProt P15391 20-556, limits assumed)
T1 sequence (looked up): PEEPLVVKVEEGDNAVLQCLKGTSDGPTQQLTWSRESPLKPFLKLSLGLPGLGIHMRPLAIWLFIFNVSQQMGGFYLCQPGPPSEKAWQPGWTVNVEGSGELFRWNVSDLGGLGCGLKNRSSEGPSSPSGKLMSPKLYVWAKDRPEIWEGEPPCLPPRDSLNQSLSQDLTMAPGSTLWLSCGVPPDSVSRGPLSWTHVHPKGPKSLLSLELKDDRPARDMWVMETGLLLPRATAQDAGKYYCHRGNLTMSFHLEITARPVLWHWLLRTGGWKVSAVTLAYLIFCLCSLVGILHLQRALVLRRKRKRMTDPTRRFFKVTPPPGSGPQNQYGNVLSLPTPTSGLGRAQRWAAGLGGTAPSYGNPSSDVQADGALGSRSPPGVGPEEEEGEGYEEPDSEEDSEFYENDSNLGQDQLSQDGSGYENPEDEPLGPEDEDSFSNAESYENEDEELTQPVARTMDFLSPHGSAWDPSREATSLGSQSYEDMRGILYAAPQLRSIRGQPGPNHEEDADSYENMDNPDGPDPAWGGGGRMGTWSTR
Test: cell-based or functional assay

B1: αCD19-SDIE (antibody, human IgG1, V domains shown)
VH: EVQLQQSGPELIKPGASVKMSCKASGYTFTSYVMHWVKQKPGQGLEWIGYINPYNDGTKYNEKFKGKATLTSDKSSSTAYMELSSLTSEDSAVYYCARGTYYYGSRVFDYWGQGTTLTVSS
VL: DIVMTQAAPSIPVTPGESVSISCRSSKSLLNSNGNTYLYWFLQRPGQSPQLLIYRMSNLASGVPDRFSGSGSGTAFTLRISRVEAEDVGVYYCMQHLEYPFTFGAGTKLELK
inhibition of proliferation of NALM16 cells with PBMC (3H-thymidine uptake, 2 days): ~60%
